In patent US20140235701, “NGF APTAMER AND APPLICATION THEREOF” (RIBOMIC INC., published 2014):
Residue numbers refer to the chain shown, from its start.

Key:
Details in all cases: tags: R&D Systems; chain copies: 2
[1] = target: T1, NGF (nerve growth factor) (Homo sapiens, UniProt P01138 P01138:122-241); assay: SPR; binding maintained
[2] = target: T1, NGF (nerve growth factor); assay: cell_activity; TF-1 cell proliferation inhibition
Experimental: (§1) Two NGF receptor (human TrkA and human p75) genes were introduced into TF-1 cells (ATCC Number: CRL-2003), which is a human erythroleukemic cell line, by using a retrovirus vector to give cells that highly express two receptors simultaneously and stably. The cells were suspended in an RPMI-1640 medium containing 20% fetal bovine serum, and seeded in a white 96 well flat-bottom plate at 1000 cells (50 μL) per well. […] With the amount of luminescence per well obtained by the addition of NGF alone and culture of the cells for 3 days as inhibitory activity 0%, and that of the well obtained by NGF free culture for 3 days as inhibitory activity 100%, the inhibitory activity of the aptamer was calculated from the amount of luminescence per well obtained by culturing with the addition of NGF and the aptamer in mixture.

[3] = target: T2, NT-3 (neurotrophin-3) (Homo sapiens, UniProt P20783 P20783:139-257); assay: cell_activity; TF-1 TrkC/p75 cells
T2 sequence: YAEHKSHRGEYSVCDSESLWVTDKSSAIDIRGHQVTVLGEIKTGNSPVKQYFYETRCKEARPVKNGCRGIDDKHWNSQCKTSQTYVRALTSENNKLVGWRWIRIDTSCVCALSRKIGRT
From the text: (§2) Using TF-1 cells, whether NGF aptamer inhibits BDNF, NT-3, NT-4 was examined. Human receptor genes (TrkB, TrkC, p75) for respective neurotrophic factors were introduced into TF-1 cells (ATCC Number: CRL-2003), which is a human erythroleukemic cell line, by using a retrovirus vector to give cells that highly express these receptors stably. TF-1 cells introduced with TrkB and p75 were used for the evaluation of inhibitory activity against BDNF, TF-1 cells introduced with TrkC and p75 were used for the evaluation against NT-3, and TF-1 cells introduced with TrkB alone were used for the evaluation against NT-4. These cells were suspended in an RPMI-1640 medium containing 20% fetal bovine serum, and seeded in a white 96 well flat-bottom plate at 1000 cells (50 μL) per well. Thereto was added a mixed solution 50 μL of human BDNF (final concentration 0.074 nM) or NT-3 (final concentration 0.074 nM) or NT-4 (final concentration 0.071 nM) and the aptamer (final concentration 1 μM-0.01 nM), which had been pre-reacted at room temperature for 30 min in a serum-free RPMI-1640 medium, 3 days later, 100 μL of CellTiter-Glo reagent for CellTiter-Glo Luminescent Cell Viability Assay (manufactured by Promega) was added to each well, chemiluminescence was measured by a microplate reader. With the amount of luminescence per well obtained by the addition of BDNF or NT-3 or NT-4 alone and culture of the cells for 3 days as inhibitory activity 0%, and that of the well obtained by culture for 3 days without addition of BDNF or NT-3 or NT-4 as inhibitory activity 100%, the inhibitory activity of the aptamer was calculated from the amount of luminescence per well obtained by culturing with the addition of BDNF or NT-3 or NT-4 and the aptamer in mixture. When the inhibitory activity was 0 or below, ‘0%’ is indicated. The 50% inhibitory concentration (IC₅₀) was determined from the concentrations at two, above and below points sandwiching the 50% inhibitory activity. An IC₅₀ value indicated as “>X” means that the inhibitory activity was not more than 50% when the indicated concentration X was the maximum measured concentration. N.D. means not measured.

[4] = target: T3, NT-4 (neurotrophin-4) (Homo sapiens, UniProt P34130 P34130:81-210); assay: cell_activity; TF-1 TrkB cells
T3 sequence: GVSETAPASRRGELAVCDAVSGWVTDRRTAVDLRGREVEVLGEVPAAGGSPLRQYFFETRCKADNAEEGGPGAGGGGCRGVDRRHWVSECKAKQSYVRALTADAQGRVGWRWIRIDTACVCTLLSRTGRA
From the text: Using TF-1 cells, whether NGF aptamer inhibits BDNF, NT-3, NT-4 was examined. Human receptor genes (TrkB, TrkC, p75) for respective neurotrophic factors were introduced into TF-1 cells (ATCC Number: CRL-2003), which is a human erythroleukemic cell line, by using a retrovirus vector to give cells that highly express these receptors stably. TF-1 cells introduced with TrkB and p75 were used for the evaluation of inhibitory activity against BDNF, TF-1 cells introduced with TrkC and p75 were used for the evaluation against NT-3, and TF-1 cells introduced with TrkB alone were used for the evaluation against NT-4. These cells were suspended in an RPMI-1640 medium containing 20% fetal bovine serum, and seeded in a white 96 well flat-bottom plate at 1000 cells (50 μL) per well. Thereto was added a mixed solution 50 μL of human BDNF (final concentration 0.074 nM) or NT-3 (final concentration 0.074 nM) or NT-4 (final concentration 0.071 nM) and the aptamer (final concentration 1 μM-0.01 nM), which had been pre-reacted at room temperature for 30 min in a serum-free RPMI-1640 medium, 3 days later, 100 μL of CellTiter-Glo reagent for CellTiter-Glo Luminescent Cell Viability Assay (manufactured by Promega) was added to each well, chemiluminescence was measured by a microplate reader. With the amount of luminescence per well obtained by the addition of BDNF or NT-3 or NT-4 alone and culture of the cells for 3 days as inhibitory activity 0%, and that of the well obtained by culture for 3 days without addition of BDNF or NT-3 or NT-4 as inhibitory activity 100%, the inhibitory activity of the aptamer was calculated from the amount of luminescence per well obtained by culturing with the addition of BDNF or NT-3 or NT-4 and the aptamer in mixture. […] The 50% inhibitory concentration (IC₅₀) was determined from the concentrations at two, above and below points sandwiching the 50% inhibitory activity. An IC₅₀ value indicated as “>X” means that the inhibitory activity was not more than 50% when the indicated concentration X was the maximum measured concentration. N.D. means not measured.

[5] = target: T1, NGF (nerve growth factor); assay: cell_activity; neurite outgrowth inhibition
Experimental: The cells (2500 cells per well) were cultured for one day in an RPMI-1640 medium containing 2.5% horse serum and 1.25% fetal bovine serum in a 96 well flat-bottom plate coated with collagen type IV. […] Two days later, the cytoplasm and nuclei were stained using Cellomics Neurite Outgrowth Kit (manufactured by Thermo Scientific), and neurite length per cell was measured by Cellomics ArrayScan VTI (manufactured by Thermo Scientific). With the neurite length per cell obtained by the addition of NGF alone as inhibitory activity 0%, and that of the cell obtained by NGF free culture for 2 days as inhibitory activity 100%, the inhibitory activity of the aptamer was calculated from the neurite length per cell obtained by culturing with the addition of NGF and the aptamer in mixture.

[6] = target: T1, NGF (nerve growth factor); assay: cell_activity; neurite; TF-1 0.084
Experimental: With the neurite length per cell obtained by the addition of NGF alone as inhibitory activity 0%, and that of the cell obtained by NGF free culture for 2 days as inhibitory activity 100%, the inhibitory activity of the aptamer was calculated from the neurite length per cell obtained by culturing with the addition of NGF and the aptamer in mixture.
as §1

[7] = target: T2, NT-3 (neurotrophin-3); assay: cell_activity; TF-1
From the text: as §2

[8] = target: T1, NGF (nerve growth factor); assay: cell_activity; neurite; TF-1 0.085
[9] = target: T3, NT-4 (neurotrophin-4); assay: cell_activity; TF-1
From the text: as §2

[10] = target: T1, NGF (nerve growth factor); assay: cell_activity; neurite; TF-1 <0.03
[11] = target: T1, NGF (nerve growth factor); assay: cell_activity; neurite; TF-1 0.034

T1 sequence (P01138 122-241, one chain of several): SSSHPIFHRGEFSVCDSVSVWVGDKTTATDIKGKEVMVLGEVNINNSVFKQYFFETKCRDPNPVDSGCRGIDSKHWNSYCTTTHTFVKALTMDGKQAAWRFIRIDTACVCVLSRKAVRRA

B1: SEQ ID NO: 63 (ssRNA)
RNA: GGGUCCUGCUGCGUAGUUUCCGUCUACGUGGCUGUUACCC
modifications: 2'-F C/U, dA, 2'-OH G
binding result [1]: binds

B2: SEQ ID NO: 69 (ssRNA)
RNA: B1 RNA with C9U, A26G
modifications: 2'-F C/U, dA, 2'-OH G
binding result [1]: binds

B3: SEQ ID NO: 64 (ssRNA)
RNA: B1 RNA with C9U, G31A
modifications: 2'-F C/U, dA, 2'-OH G
binding result [1]: binds

B4: SEQ ID NO: 65 (ssRNA)
RNA: B1 RNA with G11A, U14G, A26C, C27G
modifications: 2'-F C/U, dA, 2'-OH G
binding result [1]: binds

B5: SEQ ID NO: 75 (ssRNA)
RNA: B1 RNA with A26U, U29C, C32U
modifications: 2'-F C/U, dA, 2'-OH G
binding result [1]: binds

B6: SEQ ID NO: 82(16) (ssRNA)
RNA: GGGUCCUGGAUAAGAGUUUCCGUCUCGUAUCCUGUUACCC
modifications: 2'-F C and U except C38; 2'-OMe G1-3,G9,G14,G16,G22,G27,C38; 2'-OH G8,G34; 2'-H A; idT 5' and 3'
IC50 [2]: 0.026 nM | IC50 [3]: 34.4 nM | IC50 [4]: < 3 nM

B7: SEQ ID NO: 82(25) (ssRNA)
RNA: B6 RNA
modifications: 2'-F C5,U7,U17,U18,U19,C20,C24,U25,U33,U36; 2'-OH G8,G34; 2'-H A; 2'-OMe all other; idT 5' and 3'
IC50 [2]: 0.085 nM | IC50 [3]: 2.15 nM | IC50 [4]: 40.4 nM | IC50 [5]: < 0.1 nM

B8: SEQ ID NO: 82(23) (ssRNA)
RNA: B6 RNA
modifications: as 82(1) except 2'-OMe U4,C6,U11,C21,U23,C26,U30,C31,C32,U35,C38-40
IC50 [6]: < 0.1 nM | IC50 [7]: < 30 nM

B9: SEQ ID NO: 156 (ssRNA)
RNA: B6 RNA with U17T
modifications: as 82(1) except dT17
IC50 [8]: < 0.1 nM | IC50 [9]: < 3 nM | IC50 [7]: < 30 nM

B10: SEQ ID NO: 79(1) (ssRNA)
RNA: B6 RNA with A10U, U30A
modifications: 2'-OMe G (G8,G34 2'-OH), dA, 2'-F C/U; 5',3' idT
IC50 [10]: 0.289 nM

B11: SEQ ID NO: 82(13) (ssRNA)
RNA: B6 RNA
modifications: as 82(1) except 2'-OMe C32
IC50 [11]: 0.146 nM | IC50 [9]: 3.06 nM | IC50 [7]: 48.8 nM

B12: SEQ ID NO: 82(21) (ssRNA)
RNA: B6 RNA
modifications: as 82(1) except 2'-OMe U4,C6,U11,C21,U23,U28,U30,C32,U35,C38-40
IC50 [8]: < 0.1 nM | IC50 [7]: < 30 nM
